As usually defined, the stoichiometry N is a count of units in the complex or per binding partner.

The series “SEC” deals with the molecule itself. As to the kind of experiment: SEC. In general terms: In gel filtration, larger molecules generally elute earlier.
The series “cross-linking” deals with the molecule itself. The series is described as follows: cross-linking.

B1: Bcam0581 of Burkholderia cenocepacia J2315, hexahistidine-tagged (enzyme)
chain: MQLQSHPACRPFYEAGELSQLTAFYEEGRNVMWMMLRSEPRPCFNQQLVTDIIHLARVARDSGLTFDFWVTGSLVPELFNVGGDLSFFVDAIRSGRRDQLMAYARSCIDGVYEIYTGFGTGAISIAMVEGSALGGGFEAALAHHYVLAQKGVKLGFPEIAFNLFPGMGGYSLVARKANRGLAESLIATGEAHAAEWYEDCGLIDETFDAGDAYLATRTFIDVTKPKLNGIRAMLRARERVFQLSRSELMDITEAWVHAAFTIEPKDLAYMERLVMLQNRRVSKLRTV
For B1, the “stoichiometry N” value in “SEC” was 3; in “cross-linking”, roughly 3.

The values above are taken from publication PMC3276249 (Molecular Microbiology, 2012).
